Positions count from the first letter of the chain named.

Assay [1] has as its system Basal-like subtype of breast cancer (BLBC). Particulars: added to docetaxel after epirubicin and cyclophosphamide (EC treatment); cited from earlier work.
Assay [2] deals with T1, human CAPRIN-1 protein on cell membrane surfaces of human cancer cells (human, UniProt Q14444 2-709).
T1 construct: whole, on cells; Endogenous protein on cancer cells, stained without permeation of the cell membrane
T1 sequence (looked up): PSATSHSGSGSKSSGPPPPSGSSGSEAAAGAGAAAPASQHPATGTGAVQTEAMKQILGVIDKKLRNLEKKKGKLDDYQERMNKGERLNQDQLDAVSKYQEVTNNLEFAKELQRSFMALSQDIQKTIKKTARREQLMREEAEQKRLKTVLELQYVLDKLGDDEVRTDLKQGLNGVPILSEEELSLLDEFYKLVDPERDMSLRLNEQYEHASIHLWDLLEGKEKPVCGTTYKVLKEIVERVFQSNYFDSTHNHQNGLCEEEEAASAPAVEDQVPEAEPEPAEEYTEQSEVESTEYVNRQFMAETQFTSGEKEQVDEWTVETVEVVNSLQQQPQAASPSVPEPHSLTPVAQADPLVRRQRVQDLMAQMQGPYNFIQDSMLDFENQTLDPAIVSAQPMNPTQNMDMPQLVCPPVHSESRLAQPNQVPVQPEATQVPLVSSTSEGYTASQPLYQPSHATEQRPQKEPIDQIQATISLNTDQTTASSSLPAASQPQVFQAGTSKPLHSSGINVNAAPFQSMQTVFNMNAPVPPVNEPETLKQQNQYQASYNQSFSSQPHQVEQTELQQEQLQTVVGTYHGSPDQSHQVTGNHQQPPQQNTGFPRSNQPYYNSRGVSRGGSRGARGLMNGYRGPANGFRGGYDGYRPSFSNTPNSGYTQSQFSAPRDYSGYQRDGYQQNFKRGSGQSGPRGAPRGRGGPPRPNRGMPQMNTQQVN
The assay can be described thus: flow cytometry on cancer cells expressing CAPRIN-1. In general terms: In flow cytometry, cells or beads pass a laser one at a time.

Assay [3] concerns the target T2, CAPRIN-1 on cell membrane surfaces of human cancer cells (Homo sapiens, UniProt Q14444).
T2 construct: endogenous in cells; host or cells: human cancer cell lines (BT-474, HT-29, QG56, H1650, NCI-N87, HEC-1-A, 22Rv1, Panc10.5, Hep3B, SKOV3, Caki-2, U-87MG, T24, OE33, OCI-AML5, Ramos, TGBC 14TKB, HT-1080, G-361)
T2 sequence (Q14444 1-709): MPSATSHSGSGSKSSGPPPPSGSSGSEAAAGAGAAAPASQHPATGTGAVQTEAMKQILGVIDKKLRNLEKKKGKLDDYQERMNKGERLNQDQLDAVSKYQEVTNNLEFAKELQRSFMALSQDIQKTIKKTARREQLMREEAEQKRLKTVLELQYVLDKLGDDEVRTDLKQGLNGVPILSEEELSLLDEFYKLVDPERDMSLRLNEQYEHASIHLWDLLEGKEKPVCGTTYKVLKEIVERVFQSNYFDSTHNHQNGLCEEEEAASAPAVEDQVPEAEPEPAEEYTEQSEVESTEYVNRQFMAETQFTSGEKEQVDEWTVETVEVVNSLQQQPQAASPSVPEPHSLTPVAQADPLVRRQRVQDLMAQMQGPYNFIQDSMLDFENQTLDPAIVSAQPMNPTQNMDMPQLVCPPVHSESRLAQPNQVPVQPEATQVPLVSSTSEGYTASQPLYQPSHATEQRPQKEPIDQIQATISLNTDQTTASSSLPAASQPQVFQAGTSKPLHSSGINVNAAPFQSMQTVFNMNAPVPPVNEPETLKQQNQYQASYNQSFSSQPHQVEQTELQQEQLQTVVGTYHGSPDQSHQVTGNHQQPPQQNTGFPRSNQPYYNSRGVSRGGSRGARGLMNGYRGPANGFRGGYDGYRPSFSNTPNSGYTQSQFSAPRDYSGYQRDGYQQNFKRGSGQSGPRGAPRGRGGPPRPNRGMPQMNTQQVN
The assay is described as follows: Flow cytometry reactivity with cell membrane surfaces of human cancer cells expressing CAPRIN-1. It is filed as binding. The following applies: human cancer cells: BT-474, HT-29, QG56, H1650, NCI-N87, HEC-1-A, 22Rv1, Panc10.5, Hep3B, SKOV3, Caki-2, U-87MG, T24, OE33, OCI-AML5, Ramos, TGBC 14TKB, HT-1080, G-361. The source says: Reactivity of each monoclonal antibody with human cancer cells confirmed to express CAPRIN-1 protein on cell membrane surfaces was further confirmed by flow cytometry.
The reactivity of the anti-CAPRIN-1 antibody with cancer cells without permeation treatment of cell membranes was examined by flow cytometry to confirm that a portion of CAPRIN-1 was expressed on cell membrane surfaces of cancer cells as shown by Examples given below.

With `N.N.O=C([O-])C1(C(=O)[O-])CCC1.[Pt+2]` [carboplatin], the “effectiveness of administering carboplatin” value in assay [1] is given as “not effective”.

B1: anti-CAPRIN-1 antibody (i) (antibody, V domains shown)
VH: GAELVRSGASVKMSCKASGYSFTDYNMYWVKQTPGQGLEWIGYIYPGNGGTNYNQKFKGKATLTADTSSSTAYMQISSLTSEDSAVYFCARDYDDGGYAMDYWGQGTTVTVSS
VL: DIQMTQSPASLSASVGETVTITCRASGNIHNYLTWYQQKQGKSPQLLVYNAKTLADGVPSRFSGSGSGTQYSLKINRLQPEDFGSYYCQHFWNIPWTFGGGTKLNSR
Take B1: the binding result in assay [2] is “binds”.

B2: (ab): monoclonal antibody against CAPRIN-1 described in WO2013/125630, heavy-chain variable region SEQ ID NO: 114, light-chain variable region SEQ ID NO: 115 (antibody, listed as Mus musculus, V domains shown)
VH: GPELVKPGASVKMSCKASGYTFTSYVMHWVKQKPGQGLEWIGYINPYNDGTKYNEKFKGKATLTSDKSSSTAYMELSSLTSEDSAVYYCARRYYYGSSGGYFDVWAQDHVRT
VL: DVQITQSPSYLAASPGETITINCRASKSISKYLAWYQEKPGKTNKLLIYSGSTLQSGIPSRFSGSGSGTDFTLTISSLEPEDFAMYYCQQHNEYPYTFGGGTKLEIKR
Regarding B2, in assay [3], the “reactivity with cell membrane surfaces of cancer cells (fluorescence intensity versus negative control antibody)” value is “reacted strongly”.

B3: anti-CAPRIN-1 antibody (j) (antibody, V domains shown)
VH: DAELVKPGASVKISCKASGYTFTDHSIHWVQQKPEQGLEWIGYISPGNGNIKYNEKFKGKATLTADKSSSTAYMQLNSLTSEDSAVYFCKRSLGRGGPYYFDYWGQGTTVTVSS
VL: DIVLTQAAPSLPVTPGESVSISCRSSKSLLHSNGNTYLYWFLQRPGQSPQLLIYRMSNLASGVPDRFSGSGSGTAFTLRISRVEAEDVGVYYCMQHREYPVTFGSGPN
Regarding B3, the binding result in assay [2] was “binds”.

B4: anti-CAPRIN-1 antibody (e) (antibody, V domains shown)
VH: AVTLDESGGGLQTPGGALSLVCKASGFTFSGYDMLWVRQAPGKGLEWVAGIGSTGGGTDYGAAVKGRATISRDNGQSTVRLQLNNLRAEDTATYYCAKVAGGCNSGYCRDSPGSIDAWGHGTEVIVS
VL: AVTQQPASVSANPGETVKITCSGGGSRNYYGWYQQKSPGSVPVTVIYYDDQRPSNIPSRFSGALSGSTSTLTITGVQADDEAVYFCGSADSNTYEGSFGAGTTLTVL
Consider B4, for which the binding result in assay [2] is listed as “binds”.

B5: anti-CAPRIN-1 antibody (c) (antibody, V domains shown)
VH: AVTLDESGGGLQTPGGGLSLVCKASGFTFSSFDMGWVRQAPGKGLEFVAQINDAGSRTWYATAVKGRATISRDNGQTTVRLQLNNLRAEDTGTYYCTRGSGYVGAGAIDAWGHGTEVIVS
VL: AALTQPSSVSANPGETVKITCSGGSGYYGWYQQQKSPGSAPVTVIYQNDKRPSDIPSRFSGSGSGSTNTLTITGVQAEDEAVYFCGRYDSTDSGIFGAGTTLTVL
Regarding B5, in assay [2], the binding result was “binds”.

B6: anti-CAPRIN-1 antibody (o) (antibody, V domains shown)
VH: EVQLHQFGAELVKPGASVKISCKASGYTFTDYNMDWVKQSHGKSLEWIGDINPNYDSTSYNQKFKGKATLTVDKSSSTAYMELRSLTSEDTAVYYCARSRSYDYEGFAYWGQGTLVTVSA
VL: DIQMTQSPASLSASVGETVTITCRASGNIHNYLAWYQQKQGKSPQLLVYNAKTLADGVPSRFSGSGSGTQYSLKINSLQPEDFGSYYCQHFWSTLTFGAGTKLELKR
With B6, the binding result in assay [2] was “binds”.

B7: anti-CAPRIN-1 antibody (d) (antibody, V domains shown)
VH: QSLEESGGDLVKPGASLTLTCTASGFSFSGSYYMSWVRQAPGKGLEWIAYIYIGDGVTAYANWAKGRFTISKASSTTVTLQMTSLTAADTATYFCARGNKLWGPGTLVTVSS
VL: DVVMTQTPASVEAAVGGTVTIKCQASQSISSYLAWYQQKPGQPPKRLIYDASNLDSGVPSRFKGSGSGTDFTITISDLECADAATYYCQCTAVSSATIYGNAFGGGTEVVVK
With B7, in assay [2], the binding result is “binds”.

B8: anti-CAPRIN-1 antibody (af) (antibody, V domains shown)
VH: EVQLVESGGGLVQPGGSLRLSCAASGFSLSSHSLGWVRQAPGKGLEWIGDIRSGGSAYYANWAKGRFTISRDNSKNTLYLQMNSLRAEDTAVYYCTRTNGPSDLTNRLDLWGQGTLVTVSS
VL: QVLTQSPSSLSASVGDRVTINCQASQSLYNNENLAWFQQKPGKVPKRLIYGASTLASGVSSRFSGSGSGTEFTLTISSLQCEDFAIYYCLGEFSCGSADCFAFGGGTKVEIK
Regarding B8, the binding result in assay [2] is recorded as “binds”.

B9: anti-CAPRIN-1 antibody (ah) (antibody, V domains shown)
VH: B8 VH
VL: EQVLTQSPSSLSASVGDRVTINCQASQSLYNNENLAWFQQKPGKVPKRLIYGASTLASGVSSRFSGSGSGTEFTLTISNLQPEDFAIYYCLGEFSCGSADCFAFGGGTKVEIK
For B9, the binding result in assay [2] is reported as “binds”.

B10: anti-CAPRIN-1 antibody (ak) (antibody, V domains shown)
VH: B8 VH with Y94F
VL: B9 VL
In the case of B10, in assay [2], the binding result was “binds”.

B11: anti-CAPRIN-1 antibody (ag) (antibody, V domains shown)
VH: B8 VH with Y94F
VL: B8 VL
As to B11, in assay [2], the binding result was “binds”.

B12: anti-CAPRIN-1 antibody (b) (antibody, V domains shown)
VH: B8 VH with V2Q, Q3S
VL: B8 VL
Turning to B12, the binding result in assay [2] is given as “binds”.

B13: anti-CAPRIN-1 antibody (aj) (antibody, V domains shown)
VH: B8 VH
VL: B9 VL with Q2I, I87T
In the case of B13, the binding result in assay [2] is “binds”.

B14: anti-CAPRIN-1 antibody (ai) (antibody, V domains shown)
VH: B8 VH with Y94F
VL: B9 VL with Q2I, I87T
Regarding B14, the binding result in assay [2] is listed as “binds”.

B15: anti-CAPRIN-1 antibody (a) (antibody, V domains shown)
VH: AVTLDESGGGLQMSRGGLSLVCKASGFDFSSYQMNWIRQAPGKGLEFVAAINKFGNSTGHGAAVKGRVTISRDNGQSTVRLQLNNLRAEDTAIYFCTKHAYGYCGSGTWCAAGEIDAWGHGTEVIVSS
VL: QAASTQPSSVSANPGETVEITCSGGGSYSYGWFQQKSPGSAPVTVIYYNNKRPSDIPSRFSGSKSGSTGTLTITGVQADDEAVYYCGSGDSTDTAVFGAGTTLTVLG
On to B15, for which the binding result in assay [2] is recorded as “binds”.

The record behind these values is patent publication US20240325529A1, “MEDICAMENT FOR TREATMENT AND/OR PREVENTION OF CANCER” (TORAY INDUSTRIES, INC., priority 2021, published 2024).
